Experimental data published in article PMC9413441.

Target: SNAP-Protein G
Test: titration on hydrogel beads, read by flow cytometry of the beads; SNAP-Protein G covalently immobilised on PHD beads (20 um, 50 uM BG); titration series of fluorescently labelled mouse IgG2b at room temperature with rolling for the indicated times, then washed; mean of triplicates fitted to fluorescence = (fluorescencemax x [IgG])/(KD + [IgG])

Kd: 30.1 nM
Substance: fluorescently labeled mouse IgG2b (antibody)
